Patent publication US20250082681A1 (NANJING LEGEND BIOTECH, published 2025)
Substitutions are numbered along the chain they refer to.

T1: recombinant human CLL1 extracellular domain, His-tagged (CLL1-His protein) (human, UniProt Q5QGZ9 65-265)
T1 construct: ECD made by transient expression in HEK293 (293-F) cells and purified by IMAC; also called recombinant human CLL1 protein; ECD of CLL1; not shown: His tag (protein called CLL1-His, purified by IMAC)
T1 sequence: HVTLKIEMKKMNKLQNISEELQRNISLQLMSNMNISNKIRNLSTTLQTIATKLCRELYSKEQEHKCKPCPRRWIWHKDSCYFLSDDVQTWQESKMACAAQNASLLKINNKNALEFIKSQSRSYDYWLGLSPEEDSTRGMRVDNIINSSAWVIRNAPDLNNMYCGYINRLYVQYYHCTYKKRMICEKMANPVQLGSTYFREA

B1: AS141330 (antibody, V domains shown)
VH: QVKLEQPGGSLRLSCAASGFTFSDYDMTWVRQAPGKGLEWISTITGGGESTYYRDSVKGRATISRDNAKNTLYLQLNSLKTEDTAMYYCARGGGWEYYGMNYWGKGTLVTISS
VL: SSELTQPSAVSVSLGETARITCQGGKVGSNYASWYQQKPGQAPVLVIYGDDSRPSGIPERFSGSSSGGTATLTISGAQAEDEADYYCQSYDSSGYNAVFGGGTHLTVL
notes: Called 'IgG1', from a camel phage library, expressed in IPTG-induced supernatant with a C-terminal His-tag; also called anti-CLL1 IgG1
B2: AS138993 (antibody, V domains shown)
VH: QVQLQESGGDLVQPGGSLRLSCAASGFTFSSYDMTWVRQAPGKGLEWVSTINSGGGVTYYTDSVKGRFTISRDNAKNTLYLQMNSLKPEDTAMYYCAADLSWYHALDAWGQGTLVTVSS
VL: SSELTQPAAVSVSLGETARITCQGGNFGSYYASWYQQKPGQAPVLVIHANDNRPSGIPERFSGSSSGGTVTLTISGAQAEDEADYYCQSYDSSANAVVFGGGTHLTVL
notes: as for B1
B3: AS138628 (antibody, V domains shown)
VH: QVQLVQSGGGLVQPGGSLRLSCASSGFTFSSYTMSWVRQAPGKGLEWVSGFNSYGSTYYADSVKGRFTISRDNAKNTLYLQLNSLKTEDTAMYYCARGLVDFDYWGQGTQVTVSS
VL: QSVLTQPSSVSGTPGQTVTISCTGTSNDVGGYNYVSWYQQLPGTAPKLLIYQVNKRASGIPDRFSGSKSGNTASMTISGLQSADEADYYCASYRSTGNAVFGGGTHLTVL
notes: as for B1
B4: AS141553 (antibody, V domains shown)
VH: QVQLVESGGGLVQPGGSLRLSCAASGFTFSSVDMTWVRQAPGKGLEWVSTINTGSGSTYYADSVKGRFTISRDNAKNTLYLQMNSLKTEDTAVYYCATDLAGGGAWFTAPFHYWGQGTQVTISS
VL: SYELTQPSAVSVSLGETARITCQGGNVGYYYASWYQQKPGQAPVLVIYEDSERPSGIPERFSGSSSGGTATLTISGAQAEDEADYYCQSADSSGYNAAVFGGGTHLTVL
notes: as for B1
B5: AS141701 (antibody, V domains shown)
VH: QVQLVQSGGGLVQPGGSLRLSCAASGFTFSVYAMSWVRQAPGKGLEWVSAIKAANSDGDNTYYVDSVKGRFTISRDNAKNTLYLQLNSLKTEDTAIYYCAKAMYECSSGSWCPLGDALDAWGQGTLVTVSS
VL: B4 VL with Y2S, G28R, Y29S, Y30S, A32V, A90G, S92N, G94A, N96S
notes: as for B1
B6: AS141297 (antibody, V domains shown)
VH: QVQLVQSGGGLVQPGGSLRLSCAASGFTFSSYGMIWVRQAPGKGLEWVSAANSGGGTTYYADSVKGRFTISRDNAKNTLYLQLNSLKTEDTAMYYCVKDLYIDGGTWSGLGLYLEVWGQGTLVTVSS
VL: SYELTQPSAVSVSLGETARITCQGGDFGTYYASWYQQKPGQAPVLVIYEDSERPSGIPERFSGSSSGGTATLTISGAQAEDEADYYCQSADSSVNVVFGGGTHLTVL
notes: as for B1
B7: AS141819 (antibody, V domains shown)
VH: EVQLVQSGGGLVQPGGSLRLSCATSGFTFSNNWMHWVRQAPGKGLEWVSSINTGDGSTSSADSVKGRFTISRDNTKNILYLQMNSLKSEDTALYYCAKELDYELGKGPHEYNYWGQGTQVTVSS
VL: B1 VL with S2Y, K26N, V27I, S33N, G40D, A83T, Y90A, N96K
notes: as for B1
B8: AS141567 (antibody, V domains shown)
VH: QVQLVQSGGGLVQPGGSLRLSCAASGFTFSSYAMSWVRQAPGKGLEWVSAINSGDSSTYYVDSVKGRFTISRDNAKNTLYLQLNSLKTEDTAMYYCAKDRIPGPYSDGGGFLGIVFGYWGQGTQVTISS
VL: SSELTQPSAVSVSLGQTARITCQGGNFGKYYAHWYQQKPGQAPVLVIYEDSERPSGIPERFSGSSSGDTATLTISGAQAEDEGDYYCHSAESSAAVFGGGTHLTVL
notes: as for B1
B9: AS141522 (antibody, V domains shown)
VH: QVQLVQSGGGLVQPGGSLRLSCAASGFTFGDYIMIWVRQAPGKGLEWVSAINSGGDSTYYADSVKGRFTISRDNAKNTLYLQLNSLKTQDTAIYYCAKDREAYYGSFYGGSGFDYWGQGTQVTISS
VL: B1 VL with K26N, N30S, G49E, D51S, S52E, G76R, Y90A, S92R
notes: as for B1
B10: AS141641 (antibody, V domains shown)
VH: AVQLVESGGGLVQPGGSLRLSCAASGFTFSGYPMSWVRQAPGKALEWVSTINNGGGSTYYADSVKGRFTISRDNAKNTLYLQLNSLKTEDTAMYYCAKRHIPSSYCSDGYCYAAGEDYGMDYWGKGTLVTISS
VL: B1 VL with K26N, N30S, G49E, D51S, S52E, Y90A
notes: as for B1
B11: AS138658 (antibody, V domains shown)
VH: QVQLVQSGGSLRLSCAASGFTFSSYDMSWVRQAPGKGLEWVSTINSGGETTYYRDSVKGRFTISRDNAKNTLYLQLNSLKTEDTAMYYCAKGGGWEYYGMDYWGKGTLVTISS
VL: B1 VL with S2Y, E16Q, K26N, V27L, N30S, S33Y, G49A, G94S, N96D, A97I
notes: as for B1
B12: AS141286 (antibody, V domains shown)
VH: QVQLVQSGGGLVQPGGSLRLSCAASRFPDGSYYMSWVRQGPGKGLEWVSSIYTGGDSTYYADSVKGRFTISKDNAKNALYLQMNSLKPEDTAVYYCAADPGGRYGPHEYNYWGQGTQVTVSS
VL: B1 VL with K26N, V27I, S33N, Y90A
notes: as for B1
B13: AS138943 (antibody, V domains shown)
VH: AVQLVESGGGLVQPGGSLRLSCTASGFNFGLYAMSWVRQAPGKGLEWVSGINGGGGLTYYPDSMKGRFTISRDVAKNTLYLELNSLKIEDTAMYYCAKDPDMWTAFPNALDAWGQGTLVTVSS
VL: SYELTQPSAVSVSLGETARITCQGGNIGINYANWYQQKPGQAPVLVIYGDDRRPSGIPERFSGSISGGTATLTISGAQAEDEADYYCQSADSSPYVVFGGGTHLTVL
notes: as for B1

Each binder was assayed against T1, recombinant human CLL1 extracellular … (assay: SPR (BIACORE T200), supernatants on recombinant human CLL1).
Experimental: (§1) The unique clones were grown in 2YT medium and induced by IPTG for IgG1 expression in the supernatant. The supernatants of unique binders were analyzed for their ability to bind to a CLL1-expressing HEK293/huCLL1 cell line and cancer cell line AMLL193 using a FACS assay. Affinities of selected binders in supernatants to recombinant human and cynomolgus monkey CLL1 proteins were determined by surface plasmon resonance (SPR) on a BIACORE® T200 instrument. The dissociation phase was used to calculate the kd values for each IgG1.

| Binder | binding result |
| --- | --- |
| B1 | binds |

Each binder was assayed against T1, recombinant human CLL1 extracellular … (assay: SPR (BIACORE T200), IgG1 on recombinant human CLL1; column KD, unit inferred).
Experimental: as §1

| Binder | Kd |
| --- | --- |
| B2 | 13 nM |
| B3 | 43 nM |
| B4 | 3.5 nM |
| B5 | 2.8 nM |
| B6 | 0.54 nM |
| B7 | 11 nM |
| B8 | 2.3 nM |
| B9 | 0.37 nM |
| B10 | 0.28 nM |
| B11 | 21 nM |
| B12 | 1.2 nM |
| B13 | 39 nM |
